Positions count from the first letter of the chain named.

In the experiment the target is bovine serum albumin (bovine, UniProt P02769). Kind of experiment: ELISA, plate coated with BSA as negative control (panel of purified LPS). The protocol: Microtitre plates (flat bottomed; microtest III flexible assay plates: Becton Dickinson, Falcon 3912) are coated with purified LPS at 2 µg/ml in coating buffer (diethylenebarbituric acid-Na salt 30 mM. Na acetate 30 mM, NaCl 116 mM; pH 4.5). 50 µl aliquots of the LPS solution are distributed into each well. Unrelated protein (BSA, 2% in PBS pH 7.2/0.02% sodium azide) is used to determine non-specific binding. Plates are incubated for 1 hr at 37° C. and then overnight at 4° C. in a humidified chamber. Plates are washed 4 times with a washing solution i.e. phosphate buffered saline (PBS) pH 7.2, 0.05% vol/vol Tween 20, 0.02% sodium azide. Plates are blocked with 250 µl/well of 2% BSA in PBS/sodium azide 0.02% for 3 hrs at room temperature. Plates are washed again.
Antibody solutions are prepared in PBS/BSA 2%/sodium azide 0.02% at various dilutions, e.g. 1 µg/ml, 100 ng/ml, 10 ng/ml and 1 ng/ml. 50 µl aliquots of these solutions are distributed in the wells of the precoated plates. Incubation is carried out overnight at room temperature. […] After 1 hr, absorbance is read at 405 nm using a Titertek Multiskan ELISA reader (MCC/340, Flowlabs).
Background: An ELISA detects its analyte on a solid surface through an enzyme-linked reagent.

B1: murine monoclonal antibody WN1 222-5 (antibody, V domains shown)
VH: EVKLVESGGGLVQPGGSLSLSCAASGFTFSDYYMTWVRQAPGKAPEWLALIRNKRNGDTAEYSASVKGRFTISRDYSRSILHLQMNALRTEDSATYYCVRQGRGYTLDYWGQGTSVTVSS
VL: DIQMNQSPSSLSASLGDTISITCRASQNINIWLSWYQQKPGNVPKLLIYKASNLHTGVPSRFSGSGSGTDFTLIISSLQPEDIATYYCLQGQSYPRTFGGGTKLEIK
As for B1, the binding result is reported as “no binding (tested: 100 ng/ml)”.

B2: murine monoclonal antibody WN1 58-9 (antibody, V domains shown)
VH: EVKLVESGGGLVQPGGSLRLSCAASGFTFIDYYMTWVRHPPGEAPEWLALIRNYRNGDTAEYSASVRGRFTISRDDSQSILYLQMNALRAEDSATYYCVRQGRGYTLDYWGQGTSVTVSS
VL: B1 VL with S20T, S26R, Q27L, P40A, V43I, Y49S, I74T, Q79R
On to B2, for which the binding result is reported as “no binding (tested: 100 ng/ml)”.

For the origin of these results see US5858728, “Monoclonal antibody against LPS core” (Common Services Agency, dated 1999).
